{"source": "the RNAGym collection of RNA variant scans (doi:10.7554/elife.80360)", "parents": {"B1": {"name": "HDV Ribozyme (parent)", "chain": "GGCCGGCAUGGUCCCAGCCUCCUCGCUGGCGCCGGCUGGGCAACAUUCCGAGGGGACCGUCCCCUCGGUAAUGGCGAAUGGGACCCA"}}, "data": [{"variants_of": "B1", "assay": "self-cleavage, relative activity (ratio to wild type); higher = more cleavage; co-transcriptional", "values": [{"variant": "C3U C7A", "self-cleavage": 0.205}, {"variant": "G10U U79C", "self-cleavage": 0.0615}, {"variant": "G1U C85A", "self-cleavage": 0.361}, {"variant": "C14G G34U", "self-cleavage": 0.0594}, {"variant": "A16U G82C", "self-cleavage": 0.256}, {"variant": "C22U G74A", "self-cleavage": 0.113}, {"variant": "C64G A70G", "self-cleavage": 0.712}, {"variant": "G73U G76U", "self-cleavage": 0.212}, {"variant": "C14G A87U", "self-cleavage": 0.895}, {"variant": "C58U C86U", "self-cleavage": 0.969}, {"variant": "C4U C85U", "self-cleavage": 0.665}, {"variant": "G74C C84A", "self-cleavage": 0.177}, {"variant": "C13A C41A", "self-cleavage": 0.219}, {"variant": "C4G C63G", "self-cleavage": 0.0396}, {"variant": "C48G A83G", "self-cleavage": 0.779}, {"variant": "G55U C57A", "self-cleavage": 1.12}, {"variant": "U27C G35C", "self-cleavage": 0}, {"variant": "U27G G73U", "self-cleavage": 0.0723}, {"variant": "A70C C85G", "self-cleavage": 1.2}, {"variant": "C64A A83U", "self-cleavage": 0.511}, {"variant": "C26A C58U", "self-cleavage": 0.981}, {"variant": "U12A C86A", "self-cleavage": 0.623}, {"variant": "C41G", "self-cleavage": 0.798}, {"variant": "G52C A77G", "self-cleavage": 0.643}, {"variant": "G11C U65A", "self-cleavage": 0.293}, {"variant": "G73A C75A", "self-cleavage": 0.246}, {"variant": "G25C G59A", "self-cleavage": 0.0791}, {"variant": "A8C G68A", "self-cleavage": 0.554}, {"variant": "G6U G76A", "self-cleavage": 0.708}, {"variant": "G2C A56U", "self-cleavage": 0.0482}, {"variant": "G39C C85A", "self-cleavage": 0.203}, {"variant": "G28U G38C", "self-cleavage": 0.0665}, {"variant": "C36A U65A", "self-cleavage": 0.163}, {"variant": "G1C C22G", "self-cleavage": 0}, {"variant": "G38A A83U", "self-cleavage": 0.13}, {"variant": "C4U G67A", "self-cleavage": 0.554}, {"variant": "C21G C66A", "self-cleavage": 0.0739}, {"variant": "A8U G40U", "self-cleavage": 0.415}, {"variant": "C18A C63A", "self-cleavage": 0.0692}, {"variant": "C63U C86A", "self-cleavage": 0.96}, {"variant": "A8C U46C", "self-cleavage": 0.615}, {"variant": "C44A G81U", "self-cleavage": 0.203}, {"variant": "G17A C85U", "self-cleavage": 0.641}, {"variant": "C41G A78G", "self-cleavage": 0.208}, {"variant": "C18G A42C", "self-cleavage": 0}, {"variant": "C32G G76U", "self-cleavage": 0.122}, {"variant": "A70G G82C", "self-cleavage": 0.259}, {"variant": "C14G G82C", "self-cleavage": 0.525}, {"variant": "U37A A45G", "self-cleavage": 0.125}, {"variant": "U47C U60G", "self-cleavage": 0.935}, {"variant": "C15U C32A", "self-cleavage": 0.214}, {"variant": "A42G A45G", "self-cleavage": 0.383}, {"variant": "C36A C63G", "self-cleavage": 0.208}, {"variant": "C21G U79C", "self-cleavage": 0.0244}, {"variant": "U9A G38A", "self-cleavage": 0.233}, {"variant": "G68A A71U", "self-cleavage": 0.867}, {"variant": "U47A G73U", "self-cleavage": 0.142}, {"variant": "A70U G74C", "self-cleavage": 0.237}, {"variant": "A71U G82U", "self-cleavage": 0.248}, {"variant": "C58A U69G", "self-cleavage": 1.04}, {"variant": "A16U C75U", "self-cleavage": 0.189}, {"variant": "G59U C86G", "self-cleavage": 0.975}, {"variant": "C18U C30G", "self-cleavage": 0.0583}, {"variant": "C36G G54U", "self-cleavage": 0.166}, {"variant": "C24A C44U", "self-cleavage": 0.0831}, {"variant": "C85A A87C", "self-cleavage": 0.862}, {"variant": "U23G A42G", "self-cleavage": 0.0665}, {"variant": "U27G A71C", "self-cleavage": 0.7}, {"variant": "U69C C86G", "self-cleavage": 1.05}, {"variant": "G1C G82U", "self-cleavage": 0.095}, {"variant": "C7A A8G", "self-cleavage": 0.831}, {"variant": "G35U C48G", "self-cleavage": 0.312}, {"variant": "C32G G73C", "self-cleavage": 0.12}, {"variant": "C19A U69G", "self-cleavage": 0.12}, {"variant": "C64G A71G", "self-cleavage": 1.11}, {"variant": "C32U A43C", "self-cleavage": 0.196}, {"variant": "G5U G67U", "self-cleavage": 0.364}, {"variant": "G2A G38A", "self-cleavage": 0.0314}, {"variant": "C19A A42C", "self-cleavage": 0.026}, {"variant": "U9A G29U", "self-cleavage": 0.0639}, {"variant": "G31C C32G", "self-cleavage": 0.0396}, {"variant": "C41G G67U", "self-cleavage": 0.48}, {"variant": "C36G U60C", "self-cleavage": 0.237}, {"variant": "A56U C62U", "self-cleavage": 0.847}, {"variant": "U23C C33A", "self-cleavage": 0.0378}, {"variant": "G35A C58U", "self-cleavage": 0.478}, {"variant": "C32A C58U", "self-cleavage": 0.208}, {"variant": "G1C U37C", "self-cleavage": 0.128}, {"variant": "G11A G76U", "self-cleavage": 0.623}, {"variant": "G59C C85G", "self-cleavage": 0.955}, {"variant": "U72A C84A", "self-cleavage": 0.639}, {"variant": "G40U A56C", "self-cleavage": 0.639}, {"variant": "G1U U12A", "self-cleavage": 0.434}, {"variant": "U12C G34U", "self-cleavage": 0.0396}, {"variant": "G2U G31U", "self-cleavage": 0.0268}, {"variant": "C21A G80A", "self-cleavage": 0.0289}, {"variant": "C22U C61U", "self-cleavage": 0.62}, {"variant": "A8U G29A", "self-cleavage": 0.0852}, {"variant": "C14A A51U", "self-cleavage": 0.779}, {"variant": "C26A G81U", "self-cleavage": 0.519}, {"variant": "U37G C63G", "self-cleavage": 0.0615}, {"variant": "C49U A77G", "self-cleavage": 0.95}, {"variant": "C3A U47A", "self-cleavage": 0.429}, {"variant": "C30U G59C", "self-cleavage": 0.67}, {"variant": "U20A G34U", "self-cleavage": 0}, {"variant": "C7U A83G", "self-cleavage": 0.475}, {"variant": "C44A C64G", "self-cleavage": 0.814}, {"variant": "G28C C57G", "self-cleavage": 0.115}, {"variant": "C48G U65C", "self-cleavage": 0.931}, {"variant": "U12G G73U", "self-cleavage": 0.166}, {"variant": "C32G A70U", "self-cleavage": 0.032}, {"variant": "G34U G40A", "self-cleavage": 0.0542}, {"variant": "C21G C44G", "self-cleavage": 0.141}, {"variant": "U20C G73C", "self-cleavage": 0.135}, {"variant": "G1A A56C", "self-cleavage": 0.107}, {"variant": "C26U G34C", "self-cleavage": 0.224}, {"variant": "G25U C64U", "self-cleavage": 0.113}, {"variant": "G29U C63A", "self-cleavage": 0.106}, {"variant": "C14G G80A", "self-cleavage": 0.346}, {"variant": "C19G G53A", "self-cleavage": 0.041}, {"variant": "G28U U47G", "self-cleavage": 0.095}, {"variant": "C41G A87U", "self-cleavage": 0.788}, {"variant": "C19A G67C", "self-cleavage": 0.0615}, {"variant": "C33G U69A", "self-cleavage": 0.201}, {"variant": "G38C C61U", "self-cleavage": 0.136}, {"variant": "C7A U23A", "self-cleavage": 0.739}, {"variant": "G29A A43G", "self-cleavage": 0.0386}, {"variant": "C19U G25A", "self-cleavage": 0.0252}, {"variant": "C4U A70U", "self-cleavage": 0.554}, {"variant": "U65G A83G", "self-cleavage": 0.698}, {"variant": "G10U C57A", "self-cleavage": 0.749}, {"variant": "U27A C57U", "self-cleavage": 1.01}, {"variant": "C66U G81A", "self-cleavage": 0.509}, {"variant": "C7G G35U", "self-cleavage": 0.0811}, {"variant": "U37A C64G", "self-cleavage": 0.354}, {"variant": "C19U C85U", "self-cleavage": 0.22}, {"variant": "C21G A78G", "self-cleavage": 0.135}, {"variant": "C26U G76U", "self-cleavage": 0.963}, {"variant": "G2U G25C", "self-cleavage": 0.0244}, {"variant": "G1A C30G", "self-cleavage": 0}, {"variant": "G17U C49U", "self-cleavage": 0.356}, {"variant": "C32G U46A", "self-cleavage": 0.0332}, {"variant": "C48A C86A", "self-cleavage": 0.831}, {"variant": "G38U G73C", "self-cleavage": 0.169}, {"variant": "G2U A70C", "self-cleavage": 0.0373}, {"variant": "C21U G40U", "self-cleavage": 0.0764}, {"variant": "C15U U27A", "self-cleavage": 0.63}, {"variant": "G39A G53C", "self-cleavage": 0.383}, {"variant": "U20A A43G", "self-cleavage": 0.0573}, {"variant": "C14U C22A", "self-cleavage": 0.339}, {"variant": "G34U A43U", "self-cleavage": 0.104}, {"variant": "C32U C49U", "self-cleavage": 0.803}, {"variant": "G29U C84U", "self-cleavage": 0.0594}, {"variant": "C14G G39C", "self-cleavage": 0.217}, {"variant": "U47A G52U", "self-cleavage": 0.845}, {"variant": "U46C G80U", "self-cleavage": 0.0903}, {"variant": "U69C C75G", "self-cleavage": 0.213}, {"variant": "G6A A16G", "self-cleavage": 0.573}, {"variant": "A8G C86G", "self-cleavage": 1.23}, {"variant": "C19U G67A", "self-cleavage": 0.0739}, {"variant": "G31U C64G", "self-cleavage": 0.514}, {"variant": "U79G A87U", "self-cleavage": 0.511}, {"variant": "U12C U37A", "self-cleavage": 0.147}, {"variant": "A43G A51U", "self-cleavage": 0.646}, {"variant": "G35U C66U", "self-cleavage": 0.459}, {"variant": "G28U G31C", "self-cleavage": 0.189}, {"variant": "A43C G74C", "self-cleavage": 0.0811}]}]}
